Measurements published in US20110091994A1, “Methods for Screening Compounds for Treating and/or Preventing an Hepatitis C Virus Infection” (priority 2008, published 2011).

B1: EGFL7 (protein, UniProt Q9UHF1 24-273, looked up)
Epidermal growth factor-like …: YRPGRRVCAVRAHGDPVSESFVQRVYQPFLTTCDGHRACSTYRTIYRTAYRRSPGLAPARPRYACCPGWKRTSGLPGACGAAICQPPCRNGGSCVQPGRCRCPAGWRGDTCQSDVDECSARRGGCPQRCVNTAGSYWCQCWEGHSLSADGTLCVPKGGPPRVAPNPTGVDSAMKEEVQRLQSRVDLLEEKLQLVLAPLHSLASQALEHGLPDPGSLLVHSFQQLGRIDSLSEQISFLEEQLGSCSCKKDS
B2: DDX3Y (protein, UniProt O15523 2-660, looked up)
ATP-dependent RNA helicase …: SHVVVKNDPELDQQLANLDLNSEKQSGGASTASKGRYIPPHLRNREASKGFHDKDSSGWSCSKDKDAYSSFGSRDSRGKPGYFSERGSGSRGRFDDRGRSDYDGIGNRERPGFGRFERSGHSRWCDKSVEDDWSKPLPPSERLEQELFSGGNTGINFEKYDDIPVEATGSNCPPHIENFSDIDMGEIIMGNIELTRYTRPTPVQKHAIPIIKGKRDLMACAQTGSGKTAAFLLPILSQIYTDGPGEALKAVKENGRYGRRKQYPISLVLAPTRELAVQIYEEARKFSYRSRVRPCVVYGGADIGQQIRDLERGCHLLVATPGRLVDMMERGKIGLDFCKYLVLDEADRMLDMGFEPQIRRIVEQDTMPPKGVRHTMMFSATFPKEIQMLARDFLDEYIFLAVGRVGSTSENITQKVVWVEDLDKRSFLLDILGATGSDSLTLVFVETKKGADSLEDFLYHEGYACTSIHGDRSQRDREEALHQFRSGKSPILVATAVAARGLDISNVRHVINFDLPSDIEEYVHRIGRTGRVGNLGLATSFFNEKNMNITKDLLDLLVEAKQEVPSWLENMAYEHHYKGGSRGRSKSNRFSGGFGARDYRQSSGSSSSGFGASRGSSSRSGGGGYGNSRGFGGGGYGGFYNSDGYGGNYNSQGVDWWGN
B3: FAM65A (protein, UniProt Q6ZS17 1-1223, looked up)
Rho family-interacting cell …: MMSLSVRPQRRLLSARVNRSQSFAGVLGSHERGPSLSFRSFPVFSPPGPPRKPPALSRVSRMFSVAHPAAKVPQPERLDLVYTALKRGLTAYLEVHQQEQEKLQGQIRESKRNSRLGFLYDLDKQVKSIERFLRRLEFHASKIDELYEAYCVQRRLRDGAYNMVRAYTTGSPGSREARDSLAEATRGHREYTESMCLLESELEAQLGEFHLRMKGLAGFARLCVGDQYEICMKYGRQRWKLRGRIEGSGKQVWDSEETIFLPLLTEFLSIKVTELKGLANHVVVGSVSCETKDLFAALPQVVAVDINDLGTIKLSLEVTWSPFDKDDQPSAASSVNKASTVTKRFSTYSQSPPDTPSLREQAFYNMLRRQEELENGTAWSLSSESSDDSSSPQLSGTARHSPAPRPLVQQPEPLPIQVAFRRPETPSSGPLDEEGAVAPVLANGHAPYSRTLSHISEASVDAALAEASVEAVGPESLAWGPSPPTHPAPTHGEHPSPVPPALDPGHSATSSTLGTTGSVPTSTDPAPSAHLDSVHKSTDSGPSELPGPTHTTTGSTYSAITTTHSAPSPLTHTTTGSTHKPIISTLTTTGPTLNIIGPVQTTTSPTHTMPSPTHTTASPTHTSTSPTHTPTSPTHKTSMSPPTTTSPTPSGMGLVQTATSPTHPTTSPTHPTTSPILINVSPSTSLELATLSSPSKHSDPTLPGTDSLPCSPPVSNSYTQADPMAPRTPHPSPAHSSRKPLTSPAPDPSESTVQSLSPTPSPPTPAPQHSDLCLAMAVQTPVPTAAGGSGDRSLEEALGALMAALDDYRGQFPELQGLEQEVTRLESLLMQRQGLTRSRASSLSITVEHALESFSFLNEDEDEDNDVPGDRPPSSPEAGAEDSIDSPSARPLSTGCPALDAALVRHLYHCSRLLLKLGTFGPLRCQEAWALERLLREARVLEAVCEFSRRWEIPASSAQEVVQFSASRPGFLTFWDQCTERLSCFLCPVERVLLTFCNQYGARLSLRQPGLAEAVCVKFLEDALGQKLPRRPQPGPGEQLTVFQFWSFVETLDSPTMEAYVTETAEEVLLVRNLNSDDQAVVLKALRLAPEGRLRRDGLRALSSLLVHGNNKVMAAVSTQLRSLSLGPTFRERALLCFLDQLEDEDVQTRVAGCLALGCIKAPEGIEPLVYLCQTDTEAVREAARQSLQQCGEEGQSAHRRLEESLDALPRIFGPGSMASTAF
B4: EEF1A1 (protein, UniProt P68104 2-462, looked up)
Elongation factor 1-alpha 1: GKEKTHINIVVIGHVDSGKSTTTGHLIYKCGGIDKRTIEKFEKEAAEMGKGSFKYAWVLDKLKAERERGITIDISLWKFETSKYYVTIIDAPGHRDFIKNMITGTSQADCAVLIVAAGVGEFEAGISKNGQTREHALLAYTLGVKQLIVGVNKMDSTEPPYSQKRYEEIVKEVSTYIKKIGYNPDTVAFVPISGWNGDNMLEPSANMPWFKGWKVTRKDGNASGTTLLEALDCILPPTRPTDKPLRLPLQDVYKIGGIGTVPVGRVETGVLKPGMVVTFAPVNVTTEVKSVEMHHEALSEALPGDNVGFNVKNVSVKDVRRGNVAGDSKNDPPMEAAGFTAQVIILNHPGQISAGYAPVLDCHTAHIACKFAELKEKIDRRSGKKLEDGPKFLKSGDAAIVDMVPGKPMCVESFSDYPPLGRFAVRDMRQTVAVGVIKAVDKKAAGAGKVTKSAQKAQKAK
B5: DLAT (protein, UniProt P10515 87-647, looked up)
Dihydrolipoyllysine-residue …: SLPPHQKVPLPSLSPTMQAGTIARWEKKEGDKINEGDLIAEVETDKATVGFESLEECYMAKILVAEGTRDVPIGAIICITVGKPEDIEAFKNYTLDSSAAPTPQAAPAPTPAATASPPTPSAQAPGSSYPPHMQVLLPALSPTMTMGTVQRWEKKVGEKLSEGDLLAEIETDKATIGFEVQEEGYLAKILVPEGTRDVPLGTPLCIIVEKEADISAFADYRPTEVTDLKPQVPPPTPPPVAAVPPTPQPLAPTPSAPCPATPAGPKGRVFVSPLAKKLAVEKGIDLTQVKGTGPDGRITKKDIDSFVPSKVAPAPAAVVPPTGPGMAPVPTGVFTDIPISNIRRVIAQRLMQSKQTIPHYYLSIDVNMGEVLLVRKELNKILEGRSKISVNDFIIKASALACLKVPEANSSWMDTVIRQNHVVDVSVAVSTPAGLITPIVFNAHIKGVETIANDVVSLATKAREGKLQPHEFQGGTFTISNLGMFGIKNFSAIINPPQACILAIGASEDKLVPADNEKGFDVASMMSVTLSCDHRVVDGAVGAQWLAEFRKYLEKPITMLL
B6: DDX3X (protein, UniProt O00571 2-662, looked up)
ATP-dependent RNA helicase …: SHVAVENALGLDQQFAGLDLNSSDNQSGGSTASKGRYIPPHLRNREATKGFYDKDSSGWSSSKDKDAYSSFGSRSDSRGKSSFFSDRGSGSRGRFDDRGRSDYDGIGSRGDRSGFGKFERGGNSRWCDKSDEDDWSKPLPPSERLEQELFSGGNTGINFEKYDDIPVEATGNNCPPHIESFSDVEMGEIIMGNIELTRYTRPTPVQKHAIPIIKEKRDLMACAQTGSGKTAAFLLPILSQIYSDGPGEALRAMKENGRYGRRKQYPISLVLAPTRELAVQIYEEARKFSYRSRVRPCVVYGGADIGQQIRDLERGCHLLVATPGRLVDMMERGKIGLDFCKYLVLDEADRMLDMGFEPQIRRIVEQDTMPPKGVRHTMMFSATFPKEIQMLARDFLDEYIFLAVGRVGSTSENITQKVVWVEESDKRSFLLDLLNATGKDSLTLVFVETKKGADSLEDFLYHEGYACTSIHGDRSQRDREEALHQFRSGKSPILVATAVAARGLDISNVKHVINFDLPSDIEEYVHRIGRTGRVGNLGLATSFFNERNINITKDLLDLLVEAKQEVPSWLENMAYEHHYKGSSRGRSKSSRFSGGFGARDYRQSSGASSSSFSSSRASSSRSGGGGHGSSRGFGGGGYGGFYNSDGYGGNYNSQGVDWWGN
B7: NAPL1L2 (protein, UniProt Q9ULW6 1-460, looked up)
Nucleosome assembly protein …: MAESENRKELSESSQEEAGNQIMVEGLGEHLERGEDAAAGLGDDGKCGEEAAAGLGEEGENGEDTAAGSGEDGKKGGDTDEDSEADRPKGLIGYVLDTDFVESLPVKVKYRVLALKKLQTRAANLESKFLREFHDIERKFAEMYQPLLEKRRQIINAIYEPTEEECEYKSDSEDCDDEEMCHEEMYGNEEGMVHEYVDEDDGYEDYYYDYAVEEEEEEEEEDDIEATGEENKEEEDPKGIPDFWLTVLKNVDTLTPLIKKYDEPILKLLTDIKVKLSDPGEPLSFTLEFHFKPNEYFKNELLTKTYVLKSKLAYYDPHPYRGTAIEYSTGCEIDWNEGKNVTLKTIKKKQKHRIWGTIRTVTEDFPKDSFFNFFSPHGITSNGRDGNDDFLLGHNLRTYIIPRSVLFFSGDALESQQEGVVREVNDAIYDKIIYDNWMAAIEEVKACCKNLEALVEDIDR
B8: BIN1 (protein, UniProt O00499 2-593, looked up)
Myc box-dependent-interacting …: AEMGSKGVTAGKIASNVQKKLTRAQEKVLQKLGKADETKDEQFEQCVQNFNKQLTEGTRLQKDLRTYLASVKAMHEASKKLNECLQEVYEPDWPGRDEANKIAENNDLLWMDYHQKLVDQALLTMDTYLGQFPDIKSRIAKRGRKLVDYDSARHHYESLQTAKKKDEAKIAKPVSLLEKAAPQWCQGKLQAHLVAQTNLLRNQAEEELIKAQKVFEEMNVDLQEELPSLWNSRVGFYVNTFQSIAGLEENFHKEMSKLNQNLNDVLVGLEKQHGSNTFTVKAQPSDNAPAKGNKSPSPPDGSPAATPEIRVNHEPEPAGGATPGATLPKSPSQLRKGPPVPPPPKHTPSKEVKQEQILSLFEDTFVPEISVTTPSQFEAPGPFSEQASLLDLDFDPLPPVTSPVKAPTPSGQSIPWDLWEPTESPAGSLPSGEPSAAEGTFAVSWPSQTAEPGPAQPAEASEVAGGTQPAAGAQEPGETAASEAASSSLPAVVVETFPATVNGTVEGGSGAGRLDLPPGFMFKVQAQHDYTATDTDELQLKAGDVVLVIPFQNPEEQDEGWLMGVKESDWNQHKELEKCRGVFPENFTERVP
B9: UBASH3A (protein, UniProt P57075 1-661, looked up)
Ubiquitin-associated and SH3 …: MAAGETQLYAKVSNKLKSRSSPSLLEPLLAMGFPVHTALKALAATGRKTAEEALAWLHDHCNDPSLDDPIPQEYALFLCPTGPLLEKLQEFWRESKRQCAKNRAHEVFPHVTLCDFFTCEDQKVECLYEALKRAGDRLLGSFPTAVPLALHSSISYLGFFVSGSPADVIREFAMTFATEASLLAGTSVSRFWIFSQVPGHGPNLRLSNLTRASFVSHYILQKYCSVKPCTKQLHLTLAHKFYPHHQRTLEQLARAIPLGHSCQWTAALYSRDMRFVHYQTLRALFQYKPQNVDELTLSPGDYIFVDPTQQDEASEGWVIGISQRTGCRGFLPENYTDRASESDTWVKHRMYTFSLATDLNSRKDGEASSRCSGEFLPQTARSLSSLQALQATVARKSVLVVRHGERVDQIFGKAWLQQCSTPDGKYYRPDLNFPCSLPRRSRGIKDFENDPPLSSCGIFQSRIAGDALLDSGIRISSVFASPALRCVQTAKLILEELKLEKKIKIRVEPGIFEWTKWEAGKTTPTLMSLEELKEANFNIDTDYRPAFPLSALMPAESYQEYMDRCTASMVQIVNTCPQDTGVILIVSHGSTLDSCTRPLLGLPPRECGDFAQLVRKIPSLGMCFCEENKEEGKWELVNPPVKTLTHGANAAFNWRNWISGN

test system: HCV ORFs (Gal4-DB fusions); format: binding, HCV genotype 1b, isolate con1; details: human protein listed by gene symbol; the value names the HCV protein it interacts with
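Also: yeast two-hybrid screens using HCV genotype 1b proteins fused to Gal4-DB as baits against prey cDNA libraries from human spleen and foetal brain, IMAP1 via transformation and IMAP2 via mating.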

Molecule | Interaction with viral protein
B1 | CORE
B2 | CORE
B3 | NS3
B4 | NS3
B5 | NS3

biological target: T1, HCV ORFs (Gal4-DB fusions) (Hepatitis C virus genotype 1b, UniProt Q9WMX2); format: binding, HCV genotype 1b, isolate con1; details: HCV protein CORE as bait; human protein as prey
T1 construct: expressed in transfected cells; host or cells: Saccharomyces cerevisiae MAV203 (IMAP1) / AH109 (IMAP2)

Molecule | IMAP Y2H IMAP2 (number of IST)
B1 | 1
B2 | 3
B6 | 1

same assay, conditions: HCV protein NS3 as bait; human protein as prey

Molecule | IMAP Y2H IMAP2 (number of IST)
B7 | 1
B3 | 1
B4 | 1
B5 | 8

same assay, conditions: HCV protein NS5A as bait; human protein as prey

Molecule | IMAP Y2H IMAP1 (number of IST) | IMAP Y2H IMAP2 (number of IST)
B8 | 16 | 14
B9 | – | 1
